Data: the Human Domainome abundance scans (Beltran et al. 2025)
± gives the uncertainty stated by the source.

B1: Tripartite motif-containing protein 49C, residues 87 to 133; numbered along this chain, P0CI26 (parent)
chain: SSEEQMCGTHRETKKIFCEVDRSLLCLLCSSSQEHRYHRHRPIEWAA

Variants of: B1
Test: abundance fitness (aPCA) (normalised: wild type 0, dead -1); higher = more abundant; growth selection in yeast, the domain comes from the species named
Conditions: Homo sapiens

SSECQMCGTHRETKKIFCEVDRSLLCLLCSSSQEHRYHRHRPIEWAA [E4C] and SSEFQMCGTHRETKKIFCEVDRSLLCLLCSSSQEHRYHRHRPIEWAA [E4F] are within error of each other in abundance fitness: -0.591 ± 0.21 for the first, -0.59 ± 0.22 for the second.

First: SSEWQMCGTHRETKKIFCEVDRSLLCLLCSSSQEHRYHRHRPIEWAA [E4W]
Second: SSESQMCGTHRETKKIFCEVDRSLLCLLCSSSQEHRYHRHRPIEWAA [E4S]
The abundance fitness of the first is lower: -0.577 ± 0.11 for the first, -0.244 ± 0.11 for the second.

SSETQMCGTHRETKKIFCEVDRSLLCLLCSSSQEHRYHRHRPIEWAA [E4T] and SSEMQMCGTHRETKKIFCEVDRSLLCLLCSSSQEHRYHRHRPIEWAA [E4M] are within error of each other in abundance fitness: 0.02 ± 0.14 for the first, 0.015 ± 0.15 for the second.

First: SSEEDMCGTHRETKKIFCEVDRSLLCLLCSSSQEHRYHRHRPIEWAA [Q5D]
Second: SSEEAMCGTHRETKKIFCEVDRSLLCLLCSSSQEHRYHRHRPIEWAA [Q5A]
The abundance fitness of the first is higher: 0.159 ± 0.13 for the first, -0.358 ± 0.1 for the second.

SSEEHMCGTHRETKKIFCEVDRSLLCLLCSSSQEHRYHRHRPIEWAA [Q5H] and SSEEFMCGTHRETKKIFCEVDRSLLCLLCSSSQEHRYHRHRPIEWAA [Q5F] are within error of each other in abundance fitness: -0.315 ± 0.18 for the first, -0.424 ± 0.12 for the second.

SSEECMCGTHRETKKIFCEVDRSLLCLLCSSSQEHRYHRHRPIEWAA [Q5C] and SSEEEMCGTHRETKKIFCEVDRSLLCLLCSSSQEHRYHRHRPIEWAA [Q5E] are within error of each other in abundance fitness: -0.643 ± 0.21 for the first, -0.609 ± 0.13 for the second.

SSEEGMCGTHRETKKIFCEVDRSLLCLLCSSSQEHRYHRHRPIEWAA [Q5G] and YSEEQMCGTHRETKKIFCEVDRSLLCLLCSSSQEHRYHRHRPIEWAA [S1Y] are within error of each other in abundance fitness: -0.244 ± 0.081 for the first, -0.277 ± 0.22 for the second.

VSEEQMCGTHRETKKIFCEVDRSLLCLLCSSSQEHRYHRHRPIEWAA [S1V] and ASEEQMCGTHRETKKIFCEVDRSLLCLLCSSSQEHRYHRHRPIEWAA [S1A] are within error of each other in abundance fitness: -0.121 ± 0.22 for the first, -0.49 ± 0.19 for the second.

First: LSEEQMCGTHRETKKIFCEVDRSLLCLLCSSSQEHRYHRHRPIEWAA [S1L]
Second: FSEEQMCGTHRETKKIFCEVDRSLLCLLCSSSQEHRYHRHRPIEWAA [S1F]
The abundance fitness of the first is lower: -0.156 ± 0.15 for the first, 0.294 ± 0.23 for the second.

GSEEQMCGTHRETKKIFCEVDRSLLCLLCSSSQEHRYHRHRPIEWAA [S1G] and CSEEQMCGTHRETKKIFCEVDRSLLCLLCSSSQEHRYHRHRPIEWAA [S1C] are within error of each other in abundance fitness: -0.526 ± 0.41 for the first, -0.79 ± 0.26 for the second.

Going from TSEEQMCGTHRETKKIFCEVDRSLLCLLCSSSQEHRYHRHRPIEWAA [S1T] to ESEEQMCGTHRETKKIFCEVDRSLLCLLCSSSQEHRYHRHRPIEWAA [S1E], the abundance fitness rises from -0.496 ± 0.19 to -0.003 ± 0.21.

Compared with SFEEQMCGTHRETKKIFCEVDRSLLCLLCSSSQEHRYHRHRPIEWAA [S2F], SEEEQMCGTHRETKKIFCEVDRSLLCLLCSSSQEHRYHRHRPIEWAA [S2E] is lower in abundance fitness: 0.205 ± 0.14 for the first, -0.222 ± 0.14 for the second.

SPEEQMCGTHRETKKIFCEVDRSLLCLLCSSSQEHRYHRHRPIEWAA [S2P] and SKEEQMCGTHRETKKIFCEVDRSLLCLLCSSSQEHRYHRHRPIEWAA [S2K] are within error of each other in abundance fitness: -0.042 ± 0.22 for the first, -0.114 ± 0.14 for the second.

SVEEQMCGTHRETKKIFCEVDRSLLCLLCSSSQEHRYHRHRPIEWAA [S2V] and SDEEQMCGTHRETKKIFCEVDRSLLCLLCSSSQEHRYHRHRPIEWAA [S2D] are within error of each other in abundance fitness: -0.29 ± 0.11 for the first, -0.354 ± 0.21 for the second.

SLEEQMCGTHRETKKIFCEVDRSLLCLLCSSSQEHRYHRHRPIEWAA [S2L] and SIEEQMCGTHRETKKIFCEVDRSLLCLLCSSSQEHRYHRHRPIEWAA [S2I] are within error of each other in abundance fitness: -0.204 ± 0.12 for the first, -0.017 ± 0.14 for the second.

Going from SAEEQMCGTHRETKKIFCEVDRSLLCLLCSSSQEHRYHRHRPIEWAA [S2A] to SYEEQMCGTHRETKKIFCEVDRSLLCLLCSSSQEHRYHRHRPIEWAA [S2Y], the abundance fitness falls from -0.21 ± 0.1 to -0.647 ± 0.3.

Going from SREEQMCGTHRETKKIFCEVDRSLLCLLCSSSQEHRYHRHRPIEWAA [S2R] to SNEEQMCGTHRETKKIFCEVDRSLLCLLCSSSQEHRYHRHRPIEWAA [S2N], the abundance fitness falls from -0.268 ± 0.096 to -0.538 ± 0.17.

SSWEQMCGTHRETKKIFCEVDRSLLCLLCSSSQEHRYHRHRPIEWAA [E3W] and SSLEQMCGTHRETKKIFCEVDRSLLCLLCSSSQEHRYHRHRPIEWAA [E3L] are within error of each other in abundance fitness: -0.156 ± 0.12 for the first, -0.176 ± 0.1 for the second.

SSDEQMCGTHRETKKIFCEVDRSLLCLLCSSSQEHRYHRHRPIEWAA [E3D] and SSSEQMCGTHRETKKIFCEVDRSLLCLLCSSSQEHRYHRHRPIEWAA [E3S] are within error of each other in abundance fitness: 0.084 ± 0.17 for the first, -0.15 ± 0.098 for the second.

Compared with SSAEQMCGTHRETKKIFCEVDRSLLCLLCSSSQEHRYHRHRPIEWAA [E3A], SSYEQMCGTHRETKKIFCEVDRSLLCLLCSSSQEHRYHRHRPIEWAA [E3Y] is lower in abundance fitness: 0.051 ± 0.1 for the first, -0.592 ± 0.25 for the second.

SSHEQMCGTHRETKKIFCEVDRSLLCLLCSSSQEHRYHRHRPIEWAA [E3H] and SSVEQMCGTHRETKKIFCEVDRSLLCLLCSSSQEHRYHRHRPIEWAA [E3V] are within error of each other in abundance fitness: -0.246 ± 0.26 for the first, -0.292 ± 0.1 for the second.

SSFEQMCGTHRETKKIFCEVDRSLLCLLCSSSQEHRYHRHRPIEWAA [E3F] and SSKEQMCGTHRETKKIFCEVDRSLLCLLCSSSQEHRYHRHRPIEWAA [E3K] are within error of each other in abundance fitness: -0.346 ± 0.18 for the first, -0.295 ± 0.22 for the second.

Compared with SSCEQMCGTHRETKKIFCEVDRSLLCLLCSSSQEHRYHRHRPIEWAA [E3C], SSIEQMCGTHRETKKIFCEVDRSLLCLLCSSSQEHRYHRHRPIEWAA [E3I] is lower in abundance fitness: 0.068 ± 0.18 for the first, -0.492 ± 0.22 for the second.

SSTEQMCGTHRETKKIFCEVDRSLLCLLCSSSQEHRYHRHRPIEWAA [E3T] and SSMEQMCGTHRETKKIFCEVDRSLLCLLCSSSQEHRYHRHRPIEWAA [E3M] are within error of each other in abundance fitness: -0.487 ± 0.18 for the first, -0.275 ± 0.12 for the second.

SSPEQMCGTHRETKKIFCEVDRSLLCLLCSSSQEHRYHRHRPIEWAA [E3P] and SSREQMCGTHRETKKIFCEVDRSLLCLLCSSSQEHRYHRHRPIEWAA [E3R] are within error of each other in abundance fitness: -0.172 ± 0.14 for the first, -0.213 ± 0.081 for the second.

SSGEQMCGTHRETKKIFCEVDRSLLCLLCSSSQEHRYHRHRPIEWAA [E3G] showed an abundance fitness of -0.147 ± 0.091.
